Patent publication US20250152742A1, “COMPOSITIONS AND METHODS FOR NEUROLOGICAL DISEASES” (Trames Bio, Inc., priority 2022, published 2025)

System: engineered chimeric receptor SEQ ID NO: 33 and its mutants (human α7-nAChR ligand binding domain / human GlyRα1 ion pore domain) in Lenti-X 293T cells
Assay: YFP fluorescence quenching anion reporter plate reader assay (percent quench, EC50)
Type: cell-based
Settings: for YFP fluorescence quenching using CNL001 (percent quench): receptor named in row; for YFP fluorescence quenching using Facinicline, 30 nM fac: ligand Facinicline 30 nM; for YFP fluorescence quenching using Facinicline, 300 nM fac: ligand Facinicline 300 nM; for YFP fluorescence quenching using Facinicline, 30 uM fac: ligand Facinicline 30 uM; for YFP fluorescence quenching using TC-6987, 1 uM tc6987: ligand TC-6987 1 uM; for YFP fluorescence quenching using TC-6987, 10 uM tc6987: ligand TC-6987 10 uM; for YFP fluorescence quenching using TC-6987, 500 uM tc6987: ligand TC-6987 500 uM; for YFP fluorescence quenching using Varenicline, 3 nM var: ligand Varenicline 3 nM; for YFP fluorescence quenching using Varenicline, 30 nM var: ligand Varenicline 30 nM; for YFP fluorescence quenching using Varenicline, 300 nM var: ligand Varenicline 300 nM; for YFP fluorescence quenching using Varenicline, 500 nM var: ligand Varenicline 500 nM; for YFP fluorescence quenching using Varenicline, 1 uM var: ligand Varenicline 1 uM
Procedure, shortened: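 Lenti-X 293T cells co-expressing an anion-quenchable YFP were transiently transfected with receptor DNA, then ligand was added in NaI-substituted buffer (pH 7.2) after 30 min at 37 °C. Fluorescence was read about 2 min; percent quench = mean of last 10 s over 15 s pre-ligand baseline.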

[1] = 1 nM CNL001, first column so headed
[2] = 1 nM CNL001, second column so headed
[3] = 3 nM brd (TC-5619/Bradanicline)
[4] = 10 nM CNL001, first column so headed
[5] = 10 nM CNL001, second column so headed
[6] = 30 nM brd (TC-5619/Bradanicline)
[7] = 50 nM CNL001, first column so headed
[8] = 50 nM CNL001, second column so headed
[9] = 100 nM CNL001, first column so headed
[10] = 100 nM CNL001, second column so headed
[11] = 300 nM brd (TC-5619/Bradanicline)
[12] = 1 uM CNL001, first column so headed
[13] = 1 uM CNL001, second column so headed

B1: CODA807: engineered receptor: Y115D, L131E in SEQ ID NO: 33 (protein)
chain: MRCSPGGVWLALAASLLHVSLQGEFQRKLYKELVKNYNPLERPVANDSQPLTVYFSLSLLQIMDVDEKNQVLTTNIWLQMSWTDHYLQWNVSEYPGVKTVRFPDGQIWKPDILLDNSADERFDATFHTNVEVNSSGHCQYLPPGIFKSSCPMDLKNFPMDVQTCKLKFGSWSYGGWSLDLQMQEADISGYIPNGEWDLVGIPGKRSERFYECCKEPYPDVTFTVTMRRRMGYYLIQMYIPSLLIVILSWISFWINMDAAPARVGLGITTVLTMTTQSSGSRASLPKVSYVKAIDIWMAVCLLFVFSALLEYAAVNFVSRQHKELLRFRRKRRHHKSPMLNLFQEDEAGEGRFNFSAYGMGPACLQAKDGISVKGANNSNTTNPPPAPSKSPEEMRKLFIQRAKKIDKISRIGFPMAFLIFNMFYWIIYKIVRREDVHNQ
modifications: synthetic sequence of chimeric LGIC
[1]
  YFP fluorescence quenching using CNL001 (percent quench): 0.885%
[2]
  YFP fluorescence quenching using CNL001 (percent quench): −1.707%
1 nM brd (TC-5619/Bradanicline)
  YFP fluorescence quenching using TC-5619/Bradanicline (percent quench): −1.52%
[3]
  YFP fluorescence quenching using TC-5619/Bradanicline (percent quench): −5.35%
[4]
  YFP fluorescence quenching using CNL001 (percent quench): −0.567%
[5]
  YFP fluorescence quenching using CNL001 (percent quench): 0.043%
10 nM brd (TC-5619/Bradanicline)
  YFP fluorescence quenching using TC-5619/Bradanicline (percent quench): −3.49%
30 nM TC-6683
  YFP fluorescence quenching using TC-6683 (percent quench): −26.801%
[6]
  YFP fluorescence quenching using TC-5619/Bradanicline (percent quench): −2.16%
[7]
  YFP fluorescence quenching using CNL001 (percent quench): 5.141%
[8]
  YFP fluorescence quenching using CNL001 (percent quench): 9.409%
50 nM abt (ABT-126)
  YFP fluorescence quenching using ABT-126 (percent quench): −1.68%
[9]
  YFP fluorescence quenching using CNL001 (percent quench): 9.796%
[10]
  YFP fluorescence quenching using CNL001 (percent quench): 11.009%
100 nM CNL002
  YFP fluorescence quenching (percent quench): −5.71%
100 nM abt (ABT-126)
  YFP fluorescence quenching using ABT-126 (percent quench): −2.25%
100 nM azd0328
  YFP fluorescence quenching using AZD-0328 (percent quench): 24.49%
100 nM brd (TC-5619/Bradanicline)
  YFP fluorescence quenching using TC-5619/Bradanicline (percent quench): 4.18%
300 nM TC-6683
  YFP fluorescence quenching using TC-6683 (percent quench): −25.363%
300 nM abt (ABT-126)
  YFP fluorescence quenching using ABT-126 (percent quench): −2.37%
300 nM azd0328
  YFP fluorescence quenching using AZD-0328 (percent quench): 45.34%
[11]
  YFP fluorescence quenching using TC-5619/Bradanicline (percent quench): 70.2%
[12]
  YFP fluorescence quenching using CNL001 (percent quench): 27.914%
[13]
  YFP fluorescence quenching using CNL001 (percent quench): 29.109%
1 uM CNL002
  YFP fluorescence quenching (percent quench): 13.03%
1 uM abt (ABT-126)
  YFP fluorescence quenching using ABT-126 (percent quench): 3.68%
1 uM brd (TC-5619/Bradanicline)
  YFP fluorescence quenching using TC-5619/Bradanicline (percent quench): 43.11%
3 uM TC-6683
  YFP fluorescence quenching using TC-6683 (percent quench): −23.651%
10 uM ach (acetylcholine)
  YFP fluorescence quenching (percent quench): 15.45%
30 uM CNL002
  YFP fluorescence quenching (percent quench): 25.2%
30 uM TC-6683
  YFP fluorescence quenching using TC-6683 (percent quench): −26.235%
30 uM azd0328
  YFP fluorescence quenching using AZD-0328 (percent quench): 71.21%
100 uM TC-6683
  YFP fluorescence quenching using TC-6683 (percent quench): −24.182%
100 uM ach (acetylcholine)
  YFP fluorescence quenching (percent quench): 13.77%
1 mM ach (acetylcholine)
  YFP fluorescence quenching (percent quench): 27.42%
3 mM ach (acetylcholine)
  YFP fluorescence quenching (percent quench): 53.62%
  YFP fluorescence quenching using Facinicline, 30 nM fac: 45.76
  YFP fluorescence quenching using Facinicline, 300 nM fac: 79.43
  YFP fluorescence quenching using Facinicline, 30 uM fac: 84.91
  YFP fluorescence quenching using TC-6987, 1 uM tc6987: 36.07
  YFP fluorescence quenching using TC-6987, 10 uM tc6987: 31.35
  YFP fluorescence quenching using TC-6987, 500 uM tc6987: 28.18
Ligand Facinicline 100 nM
  YFP fluorescence quenching using Facinicline, 100 nM fac: 63.92
Ligand Facinicline 10 uM
  YFP fluorescence quenching using Facinicline, 10 uM fac: 80.1

B2: CODA952: engineered receptor: Y140I in SEQ ID NO: 33 (protein)
chain: MRCSPGGVWLALAASLLHVSLQGEFQRKLYKELVKNYNPLERPVANDSQPLTVYFSLSLLQIMDVDEKNQVLTTNIWLQMSWTDHYLQWNVSEYPGVKTVRFPDGQIWKPDILLYNSADERFDATFHTNVLVNSSGHCQILPPGIFKSSCPMDLKNFPMDVQTCKLKFGSWSYGGWSLDLQMQEADISGYIPNGEWDLVGIPGKRSERFYECCKEPYPDVTFTVTMRRRMGYYLIQMYIPSLLIVILSWISFWINMDAAPARVGLGITTVLTMTTQSSGSRASLPKVSYVKAIDIWMAVCLLFVFSALLEYAAVNFVSRQHKELLRFRRKRRHHKSPMLNLFQEDEAGEGRFNFSAYGMGPACLQAKDGISVKGANNSNTTNPPPAPSKSPEEMRKLFIQRAKKIDKISRIGFPMAFLIFNMFYWIIYKIVRREDVHNQ
modifications: synthetic sequence of chimeric LGIC
[1]
  YFP fluorescence quenching using CNL001 (percent quench): 0.368%
[2]
  YFP fluorescence quenching using CNL001 (percent quench): −1.976%
[3]
  YFP fluorescence quenching using TC-5619/Bradanicline (percent quench): −2.45%
[4]
  YFP fluorescence quenching using CNL001 (percent quench): −3.923%
[5]
  YFP fluorescence quenching using CNL001 (percent quench): 4.348%
30 nM TC-6683
  YFP fluorescence quenching using TC-6683 (percent quench): −27.7%
[6]
  YFP fluorescence quenching using TC-5619/Bradanicline (percent quench): 66.97%
[7]
  YFP fluorescence quenching using CNL001 (percent quench): 74.107%
[8]
  YFP fluorescence quenching using CNL001 (percent quench): 75.866%
50 nM abt (ABT-126)
  YFP fluorescence quenching using ABT-126 (percent quench): −12.34%
[9]
  YFP fluorescence quenching using CNL001 (percent quench): 80.323%
[10]
  YFP fluorescence quenching using CNL001 (percent quench): 81.996%
100 nM CNL002
  YFP fluorescence quenching (percent quench): 32.58%
100 nM abt (ABT-126)
  YFP fluorescence quenching using ABT-126 (percent quench): −11.57%
100 nM azd0328
  YFP fluorescence quenching using AZD-0328 (percent quench): −12.96%
300 nM TC-6683
  YFP fluorescence quenching using TC-6683 (percent quench): −26.87%
300 nM abt (ABT-126)
  YFP fluorescence quenching using ABT-126 (percent quench): −5.21%
300 nM azd0328
  YFP fluorescence quenching using AZD-0328 (percent quench): −13.21%
[11]
  YFP fluorescence quenching using TC-5619/Bradanicline (percent quench): 78.48%
[12]
  YFP fluorescence quenching using CNL001 (percent quench): 83.489%
[13]
  YFP fluorescence quenching using CNL001 (percent quench): 82.208%
1 uM CNL002
  YFP fluorescence quenching (percent quench): 69.08%
1 uM abt (ABT-126)
  YFP fluorescence quenching using ABT-126 (percent quench): 3.93%
3 uM TC-6683
  YFP fluorescence quenching using TC-6683 (percent quench): −31.2%
10 uM ach (acetylcholine)
  YFP fluorescence quenching (percent quench): −1.97%
30 uM CNL002
  YFP fluorescence quenching (percent quench): 73.28%
30 uM TC-6683
  YFP fluorescence quenching using TC-6683 (percent quench): −33.12%
30 uM azd0328
  YFP fluorescence quenching using AZD-0328 (percent quench): 68.5%
100 uM TC-6683
  YFP fluorescence quenching using TC-6683 (percent quench): −24.67%
100 uM ach (acetylcholine)
  YFP fluorescence quenching (percent quench): 2.79%
1 mM ach (acetylcholine)
  YFP fluorescence quenching (percent quench): 58.81%
3 mM ach (acetylcholine)
  YFP fluorescence quenching (percent quench): 66.9%
  YFP fluorescence quenching using Facinicline, 30 nM fac: −8.83
  YFP fluorescence quenching using Facinicline, 300 nM fac: 51.6
  YFP fluorescence quenching using Facinicline, 30 uM fac: 71.01
  YFP fluorescence quenching using TC-6987, 1 uM tc6987: 6.03
  YFP fluorescence quenching using TC-6987, 10 uM tc6987: 2.25
  YFP fluorescence quenching using TC-6987, 500 uM tc6987: −0.24
First column
  YFP fluorescence quenching using Varenicline, 3 nM var: −22.522
  YFP fluorescence quenching using Varenicline, 30 nM var: −15.306
  YFP fluorescence quenching using Varenicline, 300 nM var: −14.671
  YFP fluorescence quenching using Varenicline, 500 nM var: −16.713
  YFP fluorescence quenching using Varenicline, 1 uM var: −15.847
Second column
  YFP fluorescence quenching using Varenicline, 3 nM var: −18.173
  YFP fluorescence quenching using Varenicline, 30 nM var: −12.832
  YFP fluorescence quenching using Varenicline, 300 nM var: −17.016
  YFP fluorescence quenching using Varenicline, 500 nM var: −18.893
  YFP fluorescence quenching using Varenicline, 1 uM var: −16.236
